The values that follow come from publication PMC11267003, “Interdomain communication in a homodimeric ABC transporter” (The Journal of Biological Chemistry, 2024).

The target in data set [1] is T1, human coreTAPL R288A, C-terminal mVenus-His10 fusion (human) (UniProt Q9NP78).
T1 sequence: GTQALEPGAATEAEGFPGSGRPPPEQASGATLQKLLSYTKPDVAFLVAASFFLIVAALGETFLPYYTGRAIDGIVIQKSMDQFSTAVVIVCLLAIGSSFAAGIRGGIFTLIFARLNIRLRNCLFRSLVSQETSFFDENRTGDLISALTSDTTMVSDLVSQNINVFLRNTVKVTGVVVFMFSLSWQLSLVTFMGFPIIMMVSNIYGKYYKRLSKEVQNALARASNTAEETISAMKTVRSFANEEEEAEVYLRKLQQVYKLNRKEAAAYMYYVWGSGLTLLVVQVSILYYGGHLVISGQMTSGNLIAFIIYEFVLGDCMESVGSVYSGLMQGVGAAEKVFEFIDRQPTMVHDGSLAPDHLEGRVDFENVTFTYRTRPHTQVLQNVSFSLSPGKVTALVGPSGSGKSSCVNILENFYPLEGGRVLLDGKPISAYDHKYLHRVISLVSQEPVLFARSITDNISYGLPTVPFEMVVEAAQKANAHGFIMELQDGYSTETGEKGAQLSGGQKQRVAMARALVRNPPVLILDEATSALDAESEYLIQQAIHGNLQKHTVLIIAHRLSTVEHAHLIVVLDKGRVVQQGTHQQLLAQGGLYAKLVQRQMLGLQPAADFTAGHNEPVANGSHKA

The target in data set [2] is T1, human coreTAPL R288A, C-terminal mVenus-His10 fusion (human). This is another data set of the same source.
Data set [3] deals with T2, human coreTAPL wildtype (transporter associated with antigen processing-like, ABCB9), C-terminal mVenus-His10 fusion (human) (UniProt Q9NP78).
T2 sequence: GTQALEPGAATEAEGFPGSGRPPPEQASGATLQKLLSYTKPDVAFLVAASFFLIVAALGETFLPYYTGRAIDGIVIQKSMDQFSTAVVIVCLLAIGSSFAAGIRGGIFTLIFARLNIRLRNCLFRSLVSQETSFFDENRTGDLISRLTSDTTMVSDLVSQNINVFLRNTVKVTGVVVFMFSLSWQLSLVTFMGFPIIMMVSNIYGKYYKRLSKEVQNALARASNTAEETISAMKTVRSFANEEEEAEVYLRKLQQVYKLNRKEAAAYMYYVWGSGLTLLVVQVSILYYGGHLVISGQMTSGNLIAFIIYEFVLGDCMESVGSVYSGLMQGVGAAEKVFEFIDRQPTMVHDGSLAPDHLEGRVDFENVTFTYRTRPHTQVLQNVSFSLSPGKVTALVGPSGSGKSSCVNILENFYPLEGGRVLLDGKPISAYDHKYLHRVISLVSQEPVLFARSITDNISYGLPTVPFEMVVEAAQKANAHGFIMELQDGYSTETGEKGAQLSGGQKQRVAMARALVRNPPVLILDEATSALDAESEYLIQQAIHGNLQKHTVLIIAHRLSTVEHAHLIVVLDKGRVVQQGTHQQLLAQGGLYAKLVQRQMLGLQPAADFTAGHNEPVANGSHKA

Data set [4] addresses T3, human coreTAPL D292A, C-terminal mVenus-His10 fusion (human) (UniProt Q9NP78).
T3 sequence: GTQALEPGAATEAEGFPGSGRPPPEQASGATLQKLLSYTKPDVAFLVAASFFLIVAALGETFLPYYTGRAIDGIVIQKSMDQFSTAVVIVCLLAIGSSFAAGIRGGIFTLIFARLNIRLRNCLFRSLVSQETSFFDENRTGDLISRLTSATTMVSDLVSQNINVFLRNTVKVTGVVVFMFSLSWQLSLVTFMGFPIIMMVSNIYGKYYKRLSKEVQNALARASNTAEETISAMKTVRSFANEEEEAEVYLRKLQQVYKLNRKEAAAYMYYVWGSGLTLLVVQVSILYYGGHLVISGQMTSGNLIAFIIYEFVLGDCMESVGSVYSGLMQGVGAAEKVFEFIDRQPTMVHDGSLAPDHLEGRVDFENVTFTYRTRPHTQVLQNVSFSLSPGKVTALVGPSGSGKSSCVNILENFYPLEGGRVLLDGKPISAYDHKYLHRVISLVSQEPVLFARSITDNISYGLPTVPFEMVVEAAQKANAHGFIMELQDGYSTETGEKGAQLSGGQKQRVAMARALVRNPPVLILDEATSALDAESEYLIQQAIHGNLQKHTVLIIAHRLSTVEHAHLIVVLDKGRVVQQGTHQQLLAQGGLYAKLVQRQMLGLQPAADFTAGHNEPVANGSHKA

Data set [5] deals with the molecule itself. The experiment in a line: SEC; analytical, Superose 6 Increase 3.2/300, 20 mM Hepes, 140 mM NaCl, 100 mM imidazole, 15% glycerol, 0.1% GDN, pH 7.5, 4 °C; absorbance at 280 and 515 nm.

No end group written: not given here. *: point of attachment. Fluorescein(5-NHCOCH2) = O=C(C*)Nc1ccc2c(c1)C(=O)OC21c2ccc(O)cc2Oc2cc(O)ccc21

In turn, RRYQKSTEL [peptide R9L (…)] displayed an IC50 of the decrease of ATP hydrolysis in proteoliposomes by R9L (0–300 μM, 0.3 mM ATP, 15 min, 37 °C) in data set [1] of 9.5 µM.

On to RRYQNSTC(Fluorescein(5-NHCOCH2))L [peptide NST^FL (RRYQNSTC^FLL)], for which the K (m,peptide) of peptide transport into proteoliposomes (0 to 30 μM NST^FL, 10 min, 37 °C) in data set [2] turned out to be 2.2 µM; in data set [3] it was 4.1 µM; in data set [4] it was 2.5 µM.

B1: human coreTAPL D278A, C-terminal mVenus-His10 fusion (complex, UniProt Q9NP78 143-766, looked up)
chain: GTQALEPGAATEAEGFPGSGRPPPEQASGATLQKLLSYTKPDVAFLVAASFFLIVAALGETFLPYYTGRAIDGIVIQKSMDQFSTAVVIVCLLAIGSSFAAGIRGGIFTLIFARLNIRLRNCLFRSLVSQETSFFAENRTGDLISRLTSDTTMVSDLVSQNINVFLRNTVKVTGVVVFMFSLSWQLSLVTFMGFPIIMMVSNIYGKYYKRLSKEVQNALARASNTAEETISAMKTVRSFANEEEEAEVYLRKLQQVYKLNRKEAAAYMYYVWGSGLTLLVVQVSILYYGGHLVISGQMTSGNLIAFIIYEFVLGDCMESVGSVYSGLMQGVGAAEKVFEFIDRQPTMVHDGSLAPDHLEGRVDFENVTFTYRTRPHTQVLQNVSFSLSPGKVTALVGPSGSGKSSCVNILENFYPLEGGRVLLDGKPISAYDHKYLHRVISLVSQEPVLFARSITDNISYGLPTVPFEMVVEAAQKANAHGFIMELQDGYSTETGEKGAQLSGGQKQRVAMARALVRNPPVLILDEATSALDAESEYLIQQAIHGNLQKHTVLIIAHRLSTVEHAHLIVVLDKGRVVQQGTHQQLLAQGGLYAKLVQRQMLGLQPAADFTAGHNEPVANGSHKA
notes: human TAPL (ABCB9), coreTAPL, amino acids 143-766; Mutant of the mVenus fusion construct; TEV site between coreTAPL and mVenus; also called D278A^mV; source: Sf21 insect cells (baculovirus), purified by Ni-NTA after solubilisation in GDN or DDM; reconstituted into liposomes for transport and hydrolysis assays; not shown: mVenus, C-terminal, kept
In the case of B1, in data set [5], the binding result is “binds”.

B2: human coreTAPL D292A, C-terminal mVenus-His10 fusion (complex, UniProt Q9NP78 143-766, looked up)
chain: GTQALEPGAATEAEGFPGSGRPPPEQASGATLQKLLSYTKPDVAFLVAASFFLIVAALGETFLPYYTGRAIDGIVIQKSMDQFSTAVVIVCLLAIGSSFAAGIRGGIFTLIFARLNIRLRNCLFRSLVSQETSFFDENRTGDLISRLTSATTMVSDLVSQNINVFLRNTVKVTGVVVFMFSLSWQLSLVTFMGFPIIMMVSNIYGKYYKRLSKEVQNALARASNTAEETISAMKTVRSFANEEEEAEVYLRKLQQVYKLNRKEAAAYMYYVWGSGLTLLVVQVSILYYGGHLVISGQMTSGNLIAFIIYEFVLGDCMESVGSVYSGLMQGVGAAEKVFEFIDRQPTMVHDGSLAPDHLEGRVDFENVTFTYRTRPHTQVLQNVSFSLSPGKVTALVGPSGSGKSSCVNILENFYPLEGGRVLLDGKPISAYDHKYLHRVISLVSQEPVLFARSITDNISYGLPTVPFEMVVEAAQKANAHGFIMELQDGYSTETGEKGAQLSGGQKQRVAMARALVRNPPVLILDEATSALDAESEYLIQQAIHGNLQKHTVLIIAHRLSTVEHAHLIVVLDKGRVVQQGTHQQLLAQGGLYAKLVQRQMLGLQPAADFTAGHNEPVANGSHKA
notes: human TAPL (ABCB9), coreTAPL, amino acids 143-766; Mutant of the mVenus fusion construct; TEV site between coreTAPL and mVenus; also called D292A^mV; source: Sf21 insect cells (baculovirus), purified by Ni-NTA after solubilisation in GDN or DDM; reconstituted into liposomes for transport and hydrolysis assays; not shown: mVenus, C-terminal, kept
For B2, in data set [5], the binding result is listed as “binds”.

B3: human coreTAPL wildtype (transporter associated with antigen processing-like, ABCB9), C-terminal mVenus-His10 fusion (complex, UniProt Q9NP78 143-766, looked up)
chain: GTQALEPGAATEAEGFPGSGRPPPEQASGATLQKLLSYTKPDVAFLVAASFFLIVAALGETFLPYYTGRAIDGIVIQKSMDQFSTAVVIVCLLAIGSSFAAGIRGGIFTLIFARLNIRLRNCLFRSLVSQETSFFDENRTGDLISRLTSDTTMVSDLVSQNINVFLRNTVKVTGVVVFMFSLSWQLSLVTFMGFPIIMMVSNIYGKYYKRLSKEVQNALARASNTAEETISAMKTVRSFANEEEEAEVYLRKLQQVYKLNRKEAAAYMYYVWGSGLTLLVVQVSILYYGGHLVISGQMTSGNLIAFIIYEFVLGDCMESVGSVYSGLMQGVGAAEKVFEFIDRQPTMVHDGSLAPDHLEGRVDFENVTFTYRTRPHTQVLQNVSFSLSPGKVTALVGPSGSGKSSCVNILENFYPLEGGRVLLDGKPISAYDHKYLHRVISLVSQEPVLFARSITDNISYGLPTVPFEMVVEAAQKANAHGFIMELQDGYSTETGEKGAQLSGGQKQRVAMARALVRNPPVLILDEATSALDAESEYLIQQAIHGNLQKHTVLIIAHRLSTVEHAHLIVVLDKGRVVQQGTHQQLLAQGGLYAKLVQRQMLGLQPAADFTAGHNEPVANGSHKA
notes: human TAPL (ABCB9), coreTAPL without the N-terminal TMD0, amino acids 143-766; A tobacco etch virus cleavage site lies between coreTAPL and mVenus; no cleavage is reported for the mVenus constructs, so the His10 behind mVenus was probably still there; also called wt; wt TAPL; source: Sf21 insect cells (baculovirus), purified by Ni-NTA after solubilisation in GDN or DDM; reconstituted into …
B3: in data set [5], the binding result was “binds”.

B4: human coreTAPL R288A, C-terminal mVenus-His10 fusion (complex, UniProt Q9NP78 143-766, looked up)
chain: GTQALEPGAATEAEGFPGSGRPPPEQASGATLQKLLSYTKPDVAFLVAASFFLIVAALGETFLPYYTGRAIDGIVIQKSMDQFSTAVVIVCLLAIGSSFAAGIRGGIFTLIFARLNIRLRNCLFRSLVSQETSFFDENRTGDLISALTSDTTMVSDLVSQNINVFLRNTVKVTGVVVFMFSLSWQLSLVTFMGFPIIMMVSNIYGKYYKRLSKEVQNALARASNTAEETISAMKTVRSFANEEEEAEVYLRKLQQVYKLNRKEAAAYMYYVWGSGLTLLVVQVSILYYGGHLVISGQMTSGNLIAFIIYEFVLGDCMESVGSVYSGLMQGVGAAEKVFEFIDRQPTMVHDGSLAPDHLEGRVDFENVTFTYRTRPHTQVLQNVSFSLSPGKVTALVGPSGSGKSSCVNILENFYPLEGGRVLLDGKPISAYDHKYLHRVISLVSQEPVLFARSITDNISYGLPTVPFEMVVEAAQKANAHGFIMELQDGYSTETGEKGAQLSGGQKQRVAMARALVRNPPVLILDEATSALDAESEYLIQQAIHGNLQKHTVLIIAHRLSTVEHAHLIVVLDKGRVVQQGTHQQLLAQGGLYAKLVQRQMLGLQPAADFTAGHNEPVANGSHKA
notes: human TAPL (ABCB9), coreTAPL, amino acids 143-766; Mutant of the mVenus fusion construct; TEV site between coreTAPL and mVenus; also called R288A^mV; source: Sf21 insect cells (baculovirus), purified by Ni-NTA after solubilisation in GDN or DDM; reconstituted into liposomes for transport and hydrolysis assays; not shown: mVenus, C-terminal, kept
In the case of B4, the binding result in data set [5] is given as “binds”.
